PMC2213684, “Altering coenzyme specificity of Pichia stipitis xylose reductase by the semi-rational approach CASTing” (Microbial Cell Factories, 2007)

Columns and labels:
purified protein [1] = substrate: NC(=O)C1=CN([C@@H]2O[C@H](COP(=O)(O)OP(=O)(O)OC[C@H]3O[C@@H](n4cnc5c(N)ncnc54)[C@H](O)[C@@H]3O)[C@@H](O)[C@H]2O)C=CC1; assay: purified protein; format: biochemical, Scheffersomyces stipitis; conditions: 50 mM potassium phosphate pH 6.0
purified protein [2] = substrate: NC(=O)C1=CN([C@@H]2O[C@H](COP(=O)(O)OP(=O)(O)OC[C@H]3O[C@@H](n4cnc5c(N)ncnc54)[C@H](OP(=O)(O)O)[C@@H]3O)[C@@H](O)[C@H]2O)C=CC1; assay: purified protein; format: biochemical, Scheffersomyces stipitis; conditions: 50 mM potassium phosphate pH 6.0
[3] = mutant NT-K270R/N272D, 0.5 M xylose

B1: PsXR (wild-type NT-XR), Pichia stipitis xylose reductase (Scheffersomyces stipitis CBS 6054) (protein)
chain: MPSIKLNSGYDMPAVGFGCWKVDVDTCSEQIYRAIKTGYRLFDGAEDYANEKLVGAGVKKAIDEGIVKREDLFLTSKLWNNYHHPDNVEKALNRTLSDLQVDYVDLFLIHFPVTFKFVPLEEKYPPGFYCGKGDNFDYEDVPILETWKALEKLVKAGKIRSIGVSNFPGALLLDLLRGATIKPSVLQVEHHPYLQQPRLIEFAQSRGIAVTAYSSFGPQSFVELNQGRALNTSPLFENETIKAIAAKHGKSPAQVLLRWSSQRGIAIIPKSNTVPRLLENKDVNSFDLDEQDFADIAKLDINLRFNDPWDWDKIPIFV
- Km (purified protein [1]; 0.5 M xylose): 0.0106 ± 0.0006 mM
- kcat (purified protein [1]; 0.5 M xylose): 15.4 ± 0.583 s⁻¹
- kcat/Km (purified protein [1]; 0.5 M xylose): 1.46e+06 ± 112000 M⁻¹ s⁻¹
- Km (purified protein [2]; 0.5 M xylose): 0.0062 ± 0.0014 mM
- kcat (purified protein [2]; 0.5 M xylose): 27.5 ± 3.28 s⁻¹
- kcat/Km (purified protein [2]; 0.5 M xylose): 4.65e+06 ± 938000 M⁻¹ s⁻¹

B2: PsXR (wild-type NT-XR), Pichia stipitis xylose reductase (Scheffersomyces stipitis CBS 6054; K270S/N272P) (protein)
chain: MPSIKLNSGYDMPAVGFGCWKVDVDTCSEQIYRAIKTGYRLFDGAEDYANEKLVGAGVKKAIDEGIVKREDLFLTSKLWNNYHHPDNVEKALNRTLSDLQVDYVDLFLIHFPVTFKFVPLEEKYPPGFYCGKGDNFDYEDVPILETWKALEKLVKAGKIRSIGVSNFPGALLLDLLRGATIKPSVLQVEHHPYLQQPRLIEFAQSRGIAVTAYSSFGPQSFVELNQGRALNTSPLFENETIKAIAAKHGKSPAQVLLRWSSQRGIAIIPSSPTVPRLLENKDVNSFDLDEQDFADIAKLDINLRFNDPWDWDKIPIFV
- Km (purified protein [1]; mutant 1-2F7, 0.5 M xylose): 0.512 ± 0.022 mM
- kcat (purified protein [1]; mutant 1-2F7, 0.5 M xylose): 18.5 ± 1.3 s⁻¹
- kcat/Km (purified protein [1]; mutant 1-2F7, 0.5 M xylose): 36300 ± 2520 M⁻¹ s⁻¹
- Km (purified protein [2]; mutant 1-2F7, 0.5 M xylose): 0.849 ± 0.045 mM
- kcat (purified protein [2]; mutant 1-2F7, 0.5 M xylose): 35.2 ± 3.93 s⁻¹
- kcat/Km (purified protein [2]; mutant 1-2F7, 0.5 M xylose): 41700 ± 5000 M⁻¹ s⁻¹

B3: PsXR (wild-type NT-XR), Pichia stipitis xylose reductase (Scheffersomyces stipitis CBS 6054; K270R/N272D) (protein)
chain: MPSIKLNSGYDMPAVGFGCWKVDVDTCSEQIYRAIKTGYRLFDGAEDYANEKLVGAGVKKAIDEGIVKREDLFLTSKLWNNYHHPDNVEKALNRTLSDLQVDYVDLFLIHFPVTFKFVPLEEKYPPGFYCGKGDNFDYEDVPILETWKALEKLVKAGKIRSIGVSNFPGALLLDLLRGATIKPSVLQVEHHPYLQQPRLIEFAQSRGIAVTAYSSFGPQSFVELNQGRALNTSPLFENETIKAIAAKHGKSPAQVLLRWSSQRGIAIIPRSDTVPRLLENKDVNSFDLDEQDFADIAKLDINLRFNDPWDWDKIPIFV
- Km (purified protein [1]; [3]): 0.058 ± 0.009 mM
- kcat (purified protein [1]; [3]): 17.9 ± 2.07 s⁻¹
- kcat/Km (purified protein [1]; [3]): 313000 ± 40000 M⁻¹ s⁻¹
- Km (purified protein [2]; [3]): 0.142 ± 0.031 mM
- kcat (purified protein [2]; [3]): 15.9 ± 3.38 s⁻¹
- kcat/Km (purified protein [2]; [3]): 107000 ± 24800 M⁻¹ s⁻¹

B4: PsXR (wild-type NT-XR), Pichia stipitis xylose reductase (Scheffersomyces stipitis CBS 6054; K270S/N272P/R276F/S271G) (protein)
chain: MPSIKLNSGYDMPAVGFGCWKVDVDTCSEQIYRAIKTGYRLFDGAEDYANEKLVGAGVKKAIDEGIVKREDLFLTSKLWNNYHHPDNVEKALNRTLSDLQVDYVDLFLIHFPVTFKFVPLEEKYPPGFYCGKGDNFDYEDVPILETWKALEKLVKAGKIRSIGVSNFPGALLLDLLRGATIKPSVLQVEHHPYLQQPRLIEFAQSRGIAVTAYSSFGPQSFVELNQGRALNTSPLFENETIKAIAAKHGKSPAQVLLRWSSQRGIAIIPSGPTVPFLLENKDVNSFDLDEQDFADIAKLDINLRFNDPWDWDKIPIFV
- Km (purified protein [1]; mutant 2-2C12, 0.5 M xylose): 0.147 ± 0.012 mM
- kcat (purified protein [1]; mutant 2-2C12, 0.5 M xylose): 12 ± 0.95 s⁻¹
- kcat/Km (purified protein [1]; mutant 2-2C12, 0.5 M xylose): 81700 ± 5250 M⁻¹ s⁻¹
- Km (purified protein [2]; mutant 2-2C12, 0.5 M xylose): 0.427 ± 0.017 mM
- kcat (purified protein [2]; mutant 2-2C12, 0.5 M xylose): 2.63 ± 0.15 s⁻¹
- kcat/Km (purified protein [2]; mutant 2-2C12, 0.5 M xylose): 6170 ± 317 M⁻¹ s⁻¹
